One molecule from US20240318215A1 can be followed below.

The target of test [1] is pMag (F1) fused to second half of 563 T7RNAP non-star variant. Description: cell-based or functional assay.
The target of test [2] is pMag fused to C-terminal part of split T7 RNA polymerase, as carried on the pT7-Opto plasmid. Nature of the test: cell-based or functional assay.
Chain of pMag fused to C-terminal part of split T7 RNA polymerase, as carried on the pT7-Opto plasmid (chain, as listed by the source limits assumed): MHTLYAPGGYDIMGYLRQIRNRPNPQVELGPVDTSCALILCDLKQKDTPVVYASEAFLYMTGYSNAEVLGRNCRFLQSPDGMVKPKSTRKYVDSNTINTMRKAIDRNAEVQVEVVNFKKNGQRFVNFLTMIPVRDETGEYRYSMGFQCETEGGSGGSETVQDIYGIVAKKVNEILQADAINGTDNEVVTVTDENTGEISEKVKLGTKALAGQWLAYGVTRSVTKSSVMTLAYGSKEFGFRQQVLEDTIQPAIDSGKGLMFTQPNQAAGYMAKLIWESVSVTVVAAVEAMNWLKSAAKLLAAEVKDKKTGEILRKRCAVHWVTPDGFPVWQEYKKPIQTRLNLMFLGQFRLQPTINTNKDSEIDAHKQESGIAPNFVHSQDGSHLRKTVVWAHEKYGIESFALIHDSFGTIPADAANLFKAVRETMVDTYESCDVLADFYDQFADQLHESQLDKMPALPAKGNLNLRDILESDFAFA

Chain of pMag (F1) fused to second half of 563 T7RNAP non-star variant (chain, as listed by the source mutant limits assumed): as the sequence (chain, as listed by the source limits assumed) above, with S225R counted along it

B1: N-terminal part of split T7 RNA polymerase (563 split) fused to nMag (protein)
chain: MNTINIAKNDFSDIELAAIPFNTLADHYGERLAREQLALEHESYEMGEARFRKMFERQLKAGEVADNAAAKPLITTLLPKMIARINDWFEEVKAKRGKRPTAFQFLQEIKPEAVAYITIKTTLACLTSADNTTVQAVASAIGRAIEDEARFGRIRDLEAKHFKKNVEEQLNKRVGHVYKKAFMQVVEADMLSKGLLGGEAWSSWHKEDSIHVGVRCIEMLIESTGMVSLHRQNAGVVGQDSETIELAPEYAEAIATRAGALAGISPMFQPCVVPPKPWTGITGGGYWANGRRPLALVRTHSKKALMRYEDVYMPEVYKAINIAQNTAWKINKKVLAVANVITKWKHCPVEDIPAIEREELPMKPEDIDMNPEALTAWKRAAAAVYRKDKARKSRRISLEFMLEQANKFANHKAIWFPYNMDWRGRVYAVSMFNPQGNDMTKGLLTLAKGKPIGKEGYYWLKIHGANCAGVDKVPFPERIKFIEENHENIMACAKSPLENTWWAEQDSPFCFLAFCFEYAGVQHHGLSYNCSLPLAFDGSCSGIQHFSAMLRDEVGGRAVNLLPGGSGGHTLYAPGGYDIMGYLDQIGNRPNPQVELGPVDTSCALILCDLKQKDTPIVYASEAFLYMTGYSNAEVLGRNCRFLQSPDGMVKPKSTRKYVDSNTINTIRKAIDRNAEVQVEVVNFKKNGQRFVNFLTIIPVRDETGEYRYSMGFQCETE
As to B1, in test [1], the increase of Tyr1 production (initial rate of melanin production, OD405) in blue light, strain Opto-T7RNAP(563-F1) with pT7 tyr1, 1 mg/mL arabinose was 5.35 fold and the increase of mCherry production in response to blue light, plate reader, strain Opto-T7RNAP(563-F1) with pT7 mCherry, 10 mg/mL arabinose turned out to be 7.4 fold. In addition, in test [2], the average pixel intensity (16-bit fluorescence scan) of the blue-light-exposed region of the pT7-Opto pellicle (pixel intensity (16-bit)) amounted to 10400; the average pixel intensity (16-bit fluorescence scan) of the unexposed region of the pT7-Opto pellicle (pixel intensity (16-bit)) was 5520; the average red fluorescence of the light-exposed against the unexposed area of a K. rhaeticus pT7-Opto pellicle, fluorescence scan, 0.1% arabinose is 1.8 fold; the change in mCherry blue light response from dark to bright, flow cytometry, 96-well plate, 0.1% (w/v) arabinose was 2.57 fold. Besides, in test [2], the change in mCherry blue light response from dark to bright, flow cytometry, 96-well plate, no arabinose was 2.57 fold; the fold change of mCherry between dark and light states, flow cytometry, 96-well plate, 1% (w/v) arabinose came to 1.33 fold; the fold change of mCherry between dark and light states, flow cytometry, 96-well plate, 10% (w/v) arabinose was found to be 1.04 fold; the mCherry expression, blue light against dark culture, flow cytometry, K. rhaeticus pT7-Opto, 0.1% arabinose was found to be 7.5 fold.
